B1: recombinant enzymatically active form of Plasmodium vivax SUB1-Belem (PvSUB1-Belem), following auto-maturation at the KLVGAD//DVSLA site (protein)
chain: DVSLASVKDAVRRGESSVNWGKLRSTMLEVPSGESPPSHAASSGSPFDDDDDLLSEAALHREEAHLAGSKTTKGYKFNDEYRNLQWGLDLARLDETQDLINANRVSVTKICVIDSGIDYNHPDLRNNIDVNVKELHGRKGVDDDSNGVVDDVYGANFVNNSGDPMDDNYHGTHVSGIISAVGNNGIGIVGVDGHSKLVICKALDQHKLGRLGDMFKCIDYCISRQAHMINGSFSFDEYSNIFNASVEHLRSLGILFFVSASNCAHDKLSKPDIAKCDLAVNHRYPPILSKTHNNVIAVANLKRDLDESYSLSVNSFYSNIYCQLAAPGTNIYSTTPMNNYRKLNGTSMASPHVAAIASIVRSINPNLTYLQIVEILRNAIVKLPSLTERVSWGGYVDILRAVNLAIDSKAAPYIKSHSWFRWKQGSRRHHHHHH
B2: recombinant Plasmodium falciparum SUB1 (PfSUB1) (protein)
chain: MLLVNQSHQGFNKEHTSKMVSAIVLYVLLAAAAHSAFAADLGSKEVRSEENGKIQDDAKKIVSELRFLEKVEDVIEKSNIGGNEVDADENSFNPDTEVPIEEIEEIKMRELKDVKEEKNKNDNHNNNNNNISSSSSSSSNTFGEEKEEVSKKKKKLRLIVSENHATTPSFFQESLLEPDVLSFLESKGNLSNLKNINSMIIELKEDTTDDELISYIKILEEKGALIESDKLVSADNIDISGIKDAIRRGEENIDVNDYKSMLEVENDAEDYDKMFGMFNESHAATSKRKRHSTNERGYDTFSSPSYKTYSKSDYLYDDDNNNNNYYYSHSSNGHNSSSRNSSSSRSRPGKYHFNDEFRNLQWGLDLSRLDETQELINEHQVMSTRICVIDSGIDYNHPDLKDNIELNLKELHGRKGFDDDNNGIVDDIYGANFVNNSGNPMDDNYHGTHVSGIISAIGNNNIGVVGVDVNSKLIICKALDEHKLGRLGDMFKCLDYCISRNAHMINGSFSFDEYSGIFNSSVEYLQRKGILFFVSASNCSHPKSSTPDIRKCDLSINAKYPPILSTVYDNVISVANLKKNDNNNHYSLSINSFYSNKYCQLAAPGTNIYSTAPHNSYRKLNGTSMAAPHVAAIASLIFSINPDLSYKKVIQILKDSIVYLPSLKNMVAWAGYADINKAVNLAIKSKKTYINSNISNKWKKKSRYLHHHHHH

Experiments:
[1] = biological target: T1, PvSUB1 peptide substrate KLVGADDVSLA, tagged with fluorophore and quencher
T1 chain: KLVGADDVSLA

[2] = biological target: T2, PfSUB1 peptide substrate KLVSADNIDIS, tagged with fluorophore and quencher
T2 chain: KLVSADNIDIS

| Protein | apparent Km [1] | apparent Km [2] |
| --- | --- | --- |
| B1 | 19.7 µM±1.7 | – |
| B2 | – | 30.2 µM±3.4 |
